Data on 14 molecules can be found in publication PMC9788556 (2022).

Read-outs that look alike come from different tables or passages of the source.

The target in experiment [1] is T1, Pfs230 D1D2 (aa 587–889) (Plasmodium falciparum, UniProt P68874 587-889).
T1 chain: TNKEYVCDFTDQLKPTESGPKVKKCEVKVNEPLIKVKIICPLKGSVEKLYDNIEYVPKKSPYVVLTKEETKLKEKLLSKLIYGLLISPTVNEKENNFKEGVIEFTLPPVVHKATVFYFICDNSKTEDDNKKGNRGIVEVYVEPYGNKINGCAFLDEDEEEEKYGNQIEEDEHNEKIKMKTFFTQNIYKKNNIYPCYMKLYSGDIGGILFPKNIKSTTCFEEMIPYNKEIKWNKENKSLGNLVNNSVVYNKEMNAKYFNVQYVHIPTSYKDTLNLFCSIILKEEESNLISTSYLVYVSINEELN
The experiment is described as follows: BLI. Background: In BLI a coated tip is dipped into the sample, and binding shifts an interference pattern.

Experiment [2] addresses T2, Pfs230 D1 (aa 587–731) (Plasmodium falciparum, UniProt P68874 587-731).
T2 chain: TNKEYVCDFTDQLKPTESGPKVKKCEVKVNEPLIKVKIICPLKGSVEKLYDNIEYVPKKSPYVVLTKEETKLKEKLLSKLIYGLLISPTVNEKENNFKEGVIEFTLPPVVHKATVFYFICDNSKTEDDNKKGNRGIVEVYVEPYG
The experiment is described as follows: BLI.

Experiment [3] deals with T1, Pfs230 D1D2 (aa 587–889). The experiment is described as follows: BLI.
Experiment [4] deals with T2, Pfs230 D1 (aa 587–731). The experiment can be described thus: BLI.
In experiment [5] the target is T1, Pfs230 D1D2 (aa 587–889). The experiment is described as follows: BLI; representative curve.
The target in experiment [6] is T2, Pfs230 D1 (aa 587–731). The experiment can be described thus: BLI; representative curve.
The target of experiment [7] is T1, Pfs230 D1D2 (aa 587–889). The experiment can be described thus: BLI.
Experiment [8] concerns the target T3, Pfs230 Pro-D1D2 (aa 532–889) (Plasmodium falciparum, UniProt P68874 532-889).
T3 chain: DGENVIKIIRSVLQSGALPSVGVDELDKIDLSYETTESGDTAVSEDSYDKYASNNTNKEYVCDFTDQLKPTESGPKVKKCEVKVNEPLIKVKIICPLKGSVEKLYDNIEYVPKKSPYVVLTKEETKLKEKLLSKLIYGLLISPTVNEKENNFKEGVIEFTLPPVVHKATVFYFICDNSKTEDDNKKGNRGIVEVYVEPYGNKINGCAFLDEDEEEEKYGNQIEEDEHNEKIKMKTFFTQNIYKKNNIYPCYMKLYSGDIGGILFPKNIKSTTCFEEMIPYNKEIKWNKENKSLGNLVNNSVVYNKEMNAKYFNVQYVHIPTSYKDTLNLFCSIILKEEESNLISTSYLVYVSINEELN
The experiment is described as follows: BLI.

The target in experiment [9] is T1, Pfs230 D1D2 (aa 587–889). The experiment is described as follows: BLI; representative curve.
For experiment [10], the target named is T3, Pfs230 Pro-D1D2 (aa 532–889). The experiment is described as follows: BLI; only three curves fitted.
The target is the same in experiment [11]. The experiment can be described thus: BLI; representative curve; only three curves fitted.

B1: nanobody A11 (VHH)
VHH: QVQLQESGGGLVQPGESLRLSCAASGRTSSSYAMGWFRQAPGKEREFVASISWSGGSTYYADSVKGRFTLSRDNAKNTVYLQMNSLKPEDTAVYYCAADGIFYSDYPLSVDDFHSWGQGTQVTVSS
The term koff denotes the first-order rate constant of dissociation. By Kd is commonly meant the constant that tells how readily two partners part at equilibrium. Read a low Kd as higher affinity. For the molecule B1, the koff is 0.000152 s⁻¹ in the experiment with Pfs230 D1D2 (aa 587–889) [1] and 0.00039 s⁻¹ in the experiment with Pfs230 D1 (aa 587–731) [2]. The Kd turned out to be 1.43 nM with Pfs230 D1D2 (aa 587–889) [3], 1.56 nM in the experiment with Pfs230 D1 (aa 587–731) [4], 1.25 nM with Pfs230 D1D2 (aa 587–889) [5] and 1.47 nM with Pfs230 D1 (aa 587–731) [6].

B2: nanobody E1 (VHH)
VHH: QVQLQESGGGLVQPGGSLRLSCAASGRTFSSYFMGWFRQAPGKGRVFVASISWSGGSTYYADSVKGRFTISRDNAENTVYLQMNSLKPEDTAVYYCAAGTRATPLDWASGMDYWGKGTQVTVSS
On to B2, for which the koff in the experiment with Pfs230 D1D2 (aa 587–889) [1] came to 0.000409 s⁻¹; with Pfs230 D1 (aa 587–731) [2] it was 0.00019 s⁻¹. Moreover, the Kd with Pfs230 D1D2 (aa 587–889) [3] came out at 3.91 nM; in the experiment with Pfs230 D1 (aa 587–731) [4], 0.75 nM; with Pfs230 D1D2 (aa 587–889) [5], 3.58 nM; with Pfs230 D1 (aa 587–731) [6] it was 0.43 nM.

B3: F5-Fc (Fc fusion)
chain: QVQLQESGGGLVQPGGSLRLSCAASGFTLDRYAIGWFRQAPGKEREGVSCISSSDGSTYYADSVKGRFTISRDNAKNTVYLQMNSLKPEDTAVYYCARDHGPCTVLADILYDYGMDYWGKGTQVTVSS
As for B3, the koff was 0.000351 s⁻¹ with Pfs230 D1D2 (aa 587–889) [7] and 0.000644 s⁻¹ in experiment [8]. Besides, in the experiment with Pfs230 D1D2 (aa 587–889) [9], the dissociation constant Kd is 0.66 nM.

B4: nanobody F5 (VHH)
VHH: QVQLQESGGGLVQPGGSLRLSCAASGFTLDRYAIGWFRQAPGKEREGVSCISSSDGSTYYADSVKGRFTISRDNAKNTVYLQMNSLKPEDTAVYYCARDHGPCTVLADILYDYGMDYWGKGTQVTVSS
In the case of B4, the koff with Pfs230 D1D2 (aa 587–889) [1] worked out at 0.000313 s⁻¹; with Pfs230 D1 (aa 587–731) [2], 0.000316 s⁻¹. The Kd with Pfs230 D1D2 (aa 587–889) [3] came to 1.22 nM; with Pfs230 D1 (aa 587–731) [4], 0.81 nM; with Pfs230 D1D2 (aa 587–889) [5], 1.13 nM; with Pfs230 D1 (aa 587–731) [6] it was 1.01 nM.

B5: nanobody A10 (VHH)
VHH: QVQLQESGGGLVQAGSSLRLSCAASGGTFSNYAMGWFRQAPGKEREFVAAIGWSGGTYYTDSVEGRFTISRDNAKNTVYLQMNSLKPEDTAVYYCAAKRSGSSWSERGYDYWGQGTQVTVSS
Consider B5, for which the koff was 0.000805 s⁻¹ with Pfs230 D1D2 (aa 587–889) [1] and 0.000788 s⁻¹ with Pfs230 D1 (aa 587–731) [2]. For the same molecule, the Kd in the experiment with Pfs230 D1D2 (aa 587–889) [3] stood at 5.87 nM; in the experiment with Pfs230 D1 (aa 587–731) [4], 3.18 nM; with Pfs230 D1D2 (aa 587–889) [5] it was 5.5 nM; with Pfs230 D1 (aa 587–731) [6], 4.56 nM.

B6: nanobody D11 (VHH)
VHH: QVQLQESGGGLVQAGSSLRLSCAASGRTFSSYAMGWFRQAPGKEREFVAAIGWSGGTYYTDSVEGRFTISRDNAENTVYLQMNSLKPEDTAVYYCAAKASGSSWSERGYDYWGQGTQVTVSS
As for B6, the koff in the experiment with Pfs230 D1D2 (aa 587–889) [1] is 0.00262 s⁻¹; in the experiment with Pfs230 D1 (aa 587–731) [2], 0.00256 s⁻¹. The Kd with Pfs230 D1D2 (aa 587–889) [3] came out at 16.1 nM; with Pfs230 D1 (aa 587–731) [4] it was 8.31 nM; with Pfs230 D1D2 (aa 587–889) [5], 15.5 nM; with Pfs230 D1 (aa 587–731) [6], 10.8 nM.

B7: nanobody G2 (VHH)
VHH: QVQLQESGGGLVQAGGSLRLSCAASGRTFSNYFMGWFRQAPGKEREFVAAVSWSGGSTYYADSVKGRLTISRDNAKNTVYLQMNSLKPEDTAVYYCAAGERYFPMEPRRGYDYWGQGTQVTVSS
For the molecule B7, the figures for the koff in the experiment with Pfs230 D1D2 (aa 587–889) [1] and with Pfs230 D1 (aa 587–731) [2] were 0.00016 s⁻¹ and 0.000179 s⁻¹, respectively. The Kd with Pfs230 D1D2 (aa 587–889) [3] worked out at 1.11 nM; with Pfs230 D1 (aa 587–731) [4], 0.49 nM; in the experiment with Pfs230 D1D2 (aa 587–889) [5], 1.07 nM; with Pfs230 D1 (aa 587–731) [6], 0.36 nM.

B8: nanobody D1 (VHH)
VHH: QVQLQESGGGLVQAGDSLRLSCTASGRTFSNHAMGWFRQAPGKEREIVAVIFGTGRNSWYVDSVKGRFTISRDNAKNTVALQMNRLKPEDTAVYYCASGRTWYSGSSMAEYDYWGQGTQVTVSS
With B8, the koff in the experiment with Pfs230 D1 (aa 587–731) [2] came out at 3.72e-05 s⁻¹. Further, the Kd in the experiment with Pfs230 D1 (aa 587–731) [4] was 0.14 nM; in the experiment with Pfs230 D1 (aa 587–731) [6], 0.29 nM.

B9: nanobody G5 (VHH)
VHH: QVQLQESGGGLVQAGGSLRLSCAASGRTFNDYAMYWFRQAPGKEREFVADITWSGSSTYYADSVKGRFTISRDNAKNTVFLQMNSLKPEDTALYYCAADSRYYGIGIGTPRYWGQGTQVTVSS
As for B9, the koff with Pfs230 D1D2 (aa 587–889) [1] is 0.000579 s⁻¹; in the experiment with Pfs230 D1 (aa 587–731) [2], 0.000635 s⁻¹. For the same molecule, the Kd was 9.09 nM with Pfs230 D1D2 (aa 587–889) [3], 3.36 nM with Pfs230 D1 (aa 587–731) [4], 8.18 nM with Pfs230 D1D2 (aa 587–889) [5] and 3.25 nM in the experiment with Pfs230 D1 (aa 587–731) [6].

B10: nanobody B4 (VHH)
VHH: QVQLQESGGGLVQPGGSLRLSCAASGFTLDYYGIGWFRQAPGKEREGVSCISSSDGSTYYADSVKGRFTISRDNAKNTVYLQMNSLKPEDTAVYYCAADLTGIGCTTAQAMGVIGDFGDFGSWGQGTQVTVSS
As for B10, the dissociation rate constant (koff) with Pfs230 D1D2 (aa 587–889) [1] was 0.00152 s⁻¹; with Pfs230 D1 (aa 587–731) [2] it was 0.00138 s⁻¹. Besides, the Kd amounted to 4.8 nM with Pfs230 D1D2 (aa 587–889) [3], 1.71 nM in the experiment with Pfs230 D1 (aa 587–731) [4], 4.62 nM with Pfs230 D1D2 (aa 587–889) [5] and 2 nM with Pfs230 D1 (aa 587–731) [6].

B11: nanobody E11 (VHH)
VHH: QVQLQESGGGLVQPGGSLRLSCAASGFTSDYYGIGWFRQAPGKEREGVACISSSDGSTYYADSVKGRSTISRDNAKNTVYLQMNSLKPEDTAVYYCAADLSGIGCTTAQAMDVIGDFGDFGSWGQGTQVTVSS
With B11, the koff with Pfs230 D1D2 (aa 587–889) [1] is 0.000733 s⁻¹; with Pfs230 D1 (aa 587–731) [2], 0.000539 s⁻¹. Moreover, the Kd with Pfs230 D1D2 (aa 587–889) [3] is 2.54 nM; with Pfs230 D1 (aa 587–731) [4], 2.61 nM; with Pfs230 D1D2 (aa 587–889) [5], 2.4 nM; with Pfs230 D1 (aa 587–731) [6], 3.16 nM.

B12: nanobody F10 (VHH)
VHH: QVQLQESGGGLVQAGGSLRLSCAASGRTFSDYFMGWFRQAPGKEREFVAAVSWSGGSTYYADSVKGRFTISRDNAKNTVFLQMNSLKPEDTAVYYCAGGGSYYPMSPYDGMDYWGKGTQVTVSS
For the molecule B12, the koff with Pfs230 D1D2 (aa 587–889) [1] stood at 8.19e-05 s⁻¹; in the experiment with Pfs230 D1 (aa 587–731) [2], 4.8e-05 s⁻¹. Also, the Kd with Pfs230 D1D2 (aa 587–889) [3] is 0.45 nM; with Pfs230 D1 (aa 587–731) [4], 0.12 nM; in the experiment with Pfs230 D1D2 (aa 587–889) [5], 0.4 nM; with Pfs230 D1 (aa 587–731) [6], 0.26 nM.

B13: nanobody D6 (VHH)
VHH: QVQLQESGGGLVQAGDSLRLSCAASGRTFSSYFMGWFRQAPGKEREFVAAISWSGGSTYYADSVKGRFTISRDNVKNTVYLQMNSLEPEDAAVYYCAGGGSYYPMSPRNGMDYWGKGTQVTVSS
B13: the results for the koff with Pfs230 D1D2 (aa 587–889) [1] and with Pfs230 D1 (aa 587–731) [2] were 0.000108 s⁻¹ and 0.000158 s⁻¹, respectively. In addition, the Kd with Pfs230 D1D2 (aa 587–889) [3] was 0.63 nM; in the experiment with Pfs230 D1 (aa 587–731) [4], 0.39 nM; with Pfs230 D1D2 (aa 587–889) [5], 0.51 nM; in the experiment with Pfs230 D1 (aa 587–731) [6], 0.79 nM.

B14: F10-Fc (Fc fusion)
chain: QVQLQESGGGLVQAGGSLRLSCAASGRTFSDYFMGWFRQAPGKEREFVAAVSWSGGSTYYADSVKGRFTISRDNAKNTVFLQMNSLKPEDTAVYYCAGGGSYYPMSPYDGMDYWGKGTQVTVSS
As for B14, the koff was 3.99e-05 s⁻¹ in the experiment with Pfs230 D1D2 (aa 587–889) [7] and 0.00171 s⁻¹ in experiment [10]. Also, in [11], the Kd came to 446 nM.
